The text below walks through data of patent US20020035246A1 (VLAAMS INTERUNIVERSITAIR INSTITUUT VOOR BIOTECHNOLOGIE VZW, published 2002).

To fix the notation:
B1: Lamin (pLAM; Clontech) (other, UniProt P02545 66-230, looked up)
chain: SEEVVSREVSGIKAAYEAELGDARKTLDSVAKERARLQLELSKVREEFKELKARNTKKEGDLIAAQARLKDLEALLNSKEAALSTALSEKRTLEGELHDLRGQVAKLEAALGEAKKQLQDEMLRRVDAENRLQTMKEELDFQKNIYSEELRETKRRHETRLVEID
notes: Bought control bait plasmid

Experiment in all cases: yeast two-hybrid
For test [1], the target named is T1, SIP1 (TH1) prey protein (GAL4TAD fused to the 626 aa polypeptide encoded by th1 cDNA) (mouse, UniProt Q9R0G7 315-940, limits assumed).
T1 sequence: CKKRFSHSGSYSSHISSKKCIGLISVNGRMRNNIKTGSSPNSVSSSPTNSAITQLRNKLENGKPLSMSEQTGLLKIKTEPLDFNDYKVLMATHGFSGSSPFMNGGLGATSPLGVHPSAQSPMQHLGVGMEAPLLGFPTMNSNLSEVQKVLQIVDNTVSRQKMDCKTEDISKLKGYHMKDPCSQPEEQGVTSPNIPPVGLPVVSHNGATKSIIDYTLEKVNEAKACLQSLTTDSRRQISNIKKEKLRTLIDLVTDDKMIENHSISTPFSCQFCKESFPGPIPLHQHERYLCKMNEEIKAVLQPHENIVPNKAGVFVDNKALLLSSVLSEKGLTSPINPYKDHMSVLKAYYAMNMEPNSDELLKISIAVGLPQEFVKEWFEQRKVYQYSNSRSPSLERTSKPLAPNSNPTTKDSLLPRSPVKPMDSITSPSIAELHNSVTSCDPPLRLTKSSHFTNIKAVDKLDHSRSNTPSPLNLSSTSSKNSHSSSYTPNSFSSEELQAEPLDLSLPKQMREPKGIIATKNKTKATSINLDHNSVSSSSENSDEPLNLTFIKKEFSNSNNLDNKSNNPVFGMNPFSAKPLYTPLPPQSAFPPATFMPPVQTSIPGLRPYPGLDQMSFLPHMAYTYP

Test [2] deals with T2, TH72 prey protein (GAL4TAD fused in-frame to a partial SMAD4 starting at amino acid 252) (mouse, UniProt P97471 252-551, limits assumed).
T2 construct: Only the start (aa 252) is stated; the C-terminal end of the clone is not; also called TH72 (DPC4 or SMAD4); partial DPC-4 (SMAD4)
T2 sequence (looked up): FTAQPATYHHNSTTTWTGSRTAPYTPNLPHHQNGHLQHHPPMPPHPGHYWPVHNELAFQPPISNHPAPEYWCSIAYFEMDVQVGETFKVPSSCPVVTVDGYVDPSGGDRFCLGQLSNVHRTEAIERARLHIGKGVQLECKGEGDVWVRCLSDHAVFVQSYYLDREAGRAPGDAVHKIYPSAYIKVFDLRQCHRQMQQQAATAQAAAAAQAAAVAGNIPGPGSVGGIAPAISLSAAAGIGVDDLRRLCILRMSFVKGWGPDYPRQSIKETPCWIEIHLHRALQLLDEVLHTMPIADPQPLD

Test [3] concerns the target T3, Empty bait vector pGBT9 (GAL-4 DBD alone) (UniProt P04386 1-147).
T3 construct: Negative control bait; also called empty bait (i.e., GAL-4 DBD alone)

The target in test [4] is B1.

T3 sequence (P04386 1-147 limits assumed): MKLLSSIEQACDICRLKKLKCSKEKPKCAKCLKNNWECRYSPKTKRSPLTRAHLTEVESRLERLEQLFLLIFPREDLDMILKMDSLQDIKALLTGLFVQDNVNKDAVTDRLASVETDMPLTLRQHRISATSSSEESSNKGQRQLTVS

As for B1, the binding result in test [1] and in test [2] was “no binding” throughout.

B2: SIP7 prey protein (th74; partial open reading frame fused to the GAL4 transactivating domain in pACT2) (other, not shown: small tags and cut ends)
chain: TEPVRTDRRTEDQTATKERLLPPSGPLPRTPAPAPVTAPDTARCAVLAARHGRALSPGPRALAPSAQRCCPASGRAAETPASVGAGALRVGPAQPSQARQPTMLLLSPRSALVSVYCPQIFLLLSTAVTTLSSVVALGANIICNKIPGLAPRQRAICQSRPDAIIVIGEGAQMGIDECQHQFRFGRWNCSALGEKTVFGQELRVGSREAAFTYAITAAGVAHAVTAACSQGNLSNCGCDREKQGYYNQAEGWKWGGCSADVRYGIDFSRRFVDAREIKKNAGS
Take B2: the binding result in test [3] and in test [4] was “no binding” each time.
